# Measurements published in US20220227830A1, “QD DOSING OF GIP RECEPTOR AGONIST PEPTIDE COMPOUNDS AND USES THEREOF” (Takeda Pharmaceutical Company Limited, priority 2020, published 2022).
# Starred links: 1 amine or outer side, 2 acyl side, 3 side chain; linkers in the order of their positions; H or OH if unused. Non-standard residues stand in square brackets, D forms with d. Groups on a side chain read outwards from the residue. No end group written: not given here. *: point of attachment. 2OEGgEgE‑C15DA = 2OEGgEgE-C15 diacid linker-lipid on the Lys side chain, O=C(O)CCCCCCCCCCCCCC(=O)N[C@@H](CCC(=O)N[C@@H](CCC(=O)NCCOCCOCC(=O)NCCOCCOCC(=O)*)C(=O)O)C(=O)O; GGEEE‑C15DA = Gly-Gly-Glu-Glu-Glu linker (GGEEE) joined to a C15 diacid lipid (C15DA), on the Lys side chain; C16 diacid = O=C(O)CCCCCCCCCCCCCCC(=O)*; C15 diacid = O=C(O)CCCCCCCCCCCCCC(=O)*; γGlu = O=C(O)[C@H](CCC(=O)[*:2])N[*:1]; NMeY = CN[C@@H](Cc1ccc(O)cc1)C(=O)O; AEEA = NCCOCCOCC(=O)O; Aib = CC(C)(N)C(=O)O
# T1: full-length human GIPR with an N-terminal FLAG tag (human, UniProt P48546 22-466)
# T1 sequence (looked up): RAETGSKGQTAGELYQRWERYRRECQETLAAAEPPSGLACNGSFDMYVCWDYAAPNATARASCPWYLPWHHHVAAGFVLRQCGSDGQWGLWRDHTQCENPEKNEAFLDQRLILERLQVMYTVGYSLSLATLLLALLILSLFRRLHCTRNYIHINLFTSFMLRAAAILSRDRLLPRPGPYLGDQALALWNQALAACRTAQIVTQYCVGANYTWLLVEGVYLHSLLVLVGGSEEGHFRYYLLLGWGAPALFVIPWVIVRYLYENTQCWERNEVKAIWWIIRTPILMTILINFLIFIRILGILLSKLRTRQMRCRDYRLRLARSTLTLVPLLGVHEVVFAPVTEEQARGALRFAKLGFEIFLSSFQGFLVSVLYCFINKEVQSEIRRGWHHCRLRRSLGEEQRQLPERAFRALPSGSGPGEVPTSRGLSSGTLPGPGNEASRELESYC
# B1: Compound 99 (peptide)
# peptide: [NMeY][Aib]EGTFISDYSIAK([GGEEE-C15 diacid])DR[Aib]AQ[Aib]NFVNWLLAQRPSSGAPPPS-NH2
# B2: Compound 102 (peptide)
# peptide: [NMeY][Aib]EGTFISDYSI[Aib]LDR[Aib]AQ[Aib]K(2OEGgE‑C15DA)FVNWLLAQSPSSGAPPPS-NH2
# B3: Compound 9 (peptide)
# peptide: [NMeY][Aib]EGTFISDYSIALDRIHQ[Aib]K([AEEA-AEEA-γGlu-C16 diacid])FVNWLLAQK
# B4: Compound 106 (peptide)
# peptide: [NMeY][Aib]EGTFISDYSIALDR[Aib]KQ[Aib]DFVNWLLAQSPSSGAPPPS-NH2
# modifications: not fully specified (residue 18, N-terminus)
# B5: Compound 103 (peptide)
# peptide: [NMeY][Aib]EGTFISDYSI[Aib]LDR[Aib]AQ[Aib]K(2OEGgEgE‑C15DA)FVNWLLAQSPSSGAPPPS-NH2
# modifications: N-terminus assumed
# SMILES: CC[C@H](C)[C@H](NC(=O)[C@H](Cc1ccccc1)NC(=O)[C@@H](NC(=O)CNC(=O)[C@H](CCC(=O)O)NC(=O)C(C)(C)NC(=O)[C@H](Cc1ccc(O)cc1)NC)[C@@H](C)O)C(=O)N[C@@H](CO)C(=O)N[C@@H](CC(=O)O)C(=O)N[C@@H](Cc1ccc(O)cc1)C(=O)N[C@@H](CO)C(=O)N[C@H](C(=O)NC(C)(C)C(=O)N[C@@H](CC(C)C)C(=O)N[C@@H](CC(=O)O)C(=O)N[C@@H](CCCNC(=N)N)C(=O)NC(C)(C)C(=O)N[C@@H](C)C(=O)N[C@@H](CCC(N)=O)C(=O)NC(C)(C)C(=O)N[C@@H](CCCCNC(=O)COCCOCCNC(=O)COCCOCCNC(=O)CC[C@H](NC(=O)CC[C@H](NC(=O)CCCCCCCCCCCCCC(=O)O)C(=O)O)C(=O)O)C(=O)N[C@@H](Cc1ccccc1)C(=O)N[C@H](C(=O)N[C@@H](CC(N)=O)C(=O)N[C@@H](Cc1c[nH]c2ccccc12)C(=O)N[C@@H](CC(C)C)C(=O)N[C@@H](CC(C)C)C(=O)N[C@@H](C)C(=O)N[C@@H](CCC(N)=O)C(=O)N[C@@H](CO)C(=O)N1CCC[C@H]1C(=O)N[C@@H](CO)C(=O)N[C@@H](CO)C(=O)NCC(=O)N[C@@H](C)C(=O)N1CCC[C@H]1C(=O)N1CCC[C@H]1C(=O)N1CCC[C@H]1C(=O)N[C@@H](CO)C(N)=O)C(C)C)[C@@H](C)CC
# B6: Compound 97 (peptide)
# peptide: [NMeY][Aib]EGTFISDYSIAK([G5-γGlu-C15 diacid])DR[Aib]AQ[Aib]DFVNWLLAQRGGGGS-NH2
# B7: Compound 101 (peptide)
# peptide: [NMeY][Aib]EGTFISDYSIALDR[Aib]AQ[Aib]NFVNWLLAQK(2OEGgEgE‑C15DA)PSSGAPPPS-NH2
# modifications: N-terminus assumed
# SMILES: CC[C@H](C)[C@H](NC(=O)[C@H](CO)NC(=O)[C@H](Cc1ccc(O)cc1)NC(=O)[C@H](CC(=O)O)NC(=O)[C@H](CO)NC(=O)[C@@H](NC(=O)[C@H](Cc1ccccc1)NC(=O)[C@@H](NC(=O)CNC(=O)[C@H](CCC(=O)O)NC(=O)C(C)(C)NC(=O)[C@H](Cc1ccc(O)cc1)NC)[C@@H](C)O)[C@@H](C)CC)C(=O)N[C@@H](C)C(=O)N[C@@H](CC(C)C)C(=O)N[C@@H](CC(=O)O)C(=O)N[C@@H](CCCNC(=N)N)C(=O)NC(C)(C)C(=O)N[C@@H](C)C(=O)N[C@@H](CCC(N)=O)C(=O)NC(C)(C)C(=O)N[C@@H](CC(N)=O)C(=O)N[C@@H](Cc1ccccc1)C(=O)N[C@H](C(=O)N[C@@H](CC(N)=O)C(=O)N[C@@H](Cc1c[nH]c2ccccc12)C(=O)N[C@@H](CC(C)C)C(=O)N[C@@H](CC(C)C)C(=O)N[C@@H](C)C(=O)N[C@@H](CCC(N)=O)C(=O)N[C@@H](CCCCNC(=O)COCCOCCNC(=O)COCCOCCNC(=O)CC[C@H](NC(=O)CC[C@H](NC(=O)CCCCCCCCCCCCCC(=O)O)C(=O)O)C(=O)O)C(=O)N1CCC[C@H]1C(=O)N[C@@H](CO)C(=O)N[C@@H](CO)C(=O)NCC(=O)N[C@@H](C)C(=O)N1CCC[C@H]1C(=O)N1CCC[C@H]1C(=O)N1CCC[C@H]1C(=O)N[C@@H](CO)C(N)=O)C(C)C
# B8: Compound 96 (peptide)
# peptide: [NMeY][Aib]EGTFISDYSIALDR[Aib]AQ[Aib]KFVNWLLAQRGGGGS-NH2
# modifications: not fully specified (residue 21)
# B9: Compound 100 (peptide)
# peptide: [NMeY][Aib]EGTFISDYSI[Aib]LDR[Aib]AQ[Aib]DFVNWLLAQK(2OEGgE‑C15DA)PSSGAPPPS-NH2
# B10: Compound 98 (peptide)
# peptide: [NMeY][Aib]EGTFISDYSIALDR[Aib]AQ[Aib]DFVNWLLAK([AEEA-AEEA-γGlu-C15 diacid])SPSSG-NH2
# modifications: N-terminus assumed
# SMILES: CC[C@H](C)[C@H](NC(=O)[C@H](CO)NC(=O)[C@H](Cc1ccc(O)cc1)NC(=O)[C@H](CC(=O)O)NC(=O)[C@H](CO)NC(=O)[C@@H](NC(=O)[C@H](Cc1ccccc1)NC(=O)[C@@H](NC(=O)CNC(=O)[C@H](CCC(=O)O)NC(=O)C(C)(C)NC(=O)[C@H](Cc1ccc(O)cc1)NC)[C@@H](C)O)[C@@H](C)CC)C(=O)N[C@@H](C)C(=O)N[C@@H](CC(C)C)C(=O)N[C@@H](CC(=O)O)C(=O)N[C@@H](CCCNC(=N)N)C(=O)NC(C)(C)C(=O)N[C@@H](C)C(=O)N[C@@H](CCC(N)=O)C(=O)NC(C)(C)C(=O)N[C@@H](CC(=O)O)C(=O)N[C@@H](Cc1ccccc1)C(=O)N[C@H](C(=O)N[C@@H](CC(N)=O)C(=O)N[C@@H](Cc1c[nH]c2ccccc12)C(=O)N[C@@H](CC(C)C)C(=O)N[C@@H](CC(C)C)C(=O)N[C@@H](C)C(=O)N[C@@H](CCCCNC(=O)COCCOCCNC(=O)COCCOCCNC(=O)CC[C@H](NC(=O)CCCCCCCCCCCCCC(=O)O)C(=O)O)C(=O)N[C@@H](CO)C(=O)N1CCC[C@H]1C(=O)N[C@@H](CO)C(=O)N[C@@H](CO)C(=O)NCC(N)=O)C(C)C
# B11: Compound 104 (peptide)
# peptide: [NMeY][Aib]EGTFISDYSIALDRK([AEEA-AEEA-γGlu-C15 diacid])AQ[Aib]DFVNWLLAQRPSSGAPPPS-NH2
# B12: Compound 105 (peptide)
# peptide: [NMeY][Aib]EGTFISDYSIALDR[Aib]K(GGEEE‑C15DA)Q[Aib]NFVNWLLAQSPSSGAPPPS-NH2
# Experiments:
# [1] = target: full-length human GLP-1R with an N-terminal FLAG tag (human, UniProt P43220 24-463); experiment: cell-based or functional assay
# [2] = target: T1, full-length human GIPR with an …; experiment: cell-based or functional assay
Binder,Human GLP1R cAMP HEK293T EC50 [1] [nM],"Human GIPR cAMP, HEK293T EC50 [2] [nM]"
B1,1000,0.0002
B2,31.6,0.0005
B3,95.5,0.0002
B4,120,0.0005
B5,148,0.0005
B6,490,0.0002
B7,550,0.0002
B8,89.1,0.0004
B9,1000,0.0007
B10,1000,0.0006
B11,1000,0.0004
B12,1000,0.0003
